assay: soluble on expression in E. coli; label from the status in PepcDB or PDB records

Row | Sequence | soluble on expression in E. coli
1 | MAHHHHHHMQFGPVVSEAEIRTVQDGIANGVRSDGRSLTQRRPFTVVTNRGSTTHFEGSSVEVHCDGTTVVAAATPSVVELDIDRGQAPRGSLFVNIDAVPAVVEHYAQSVRNNSARYRQAFLSFLATAIRQTFGAQGVTAEERQQQLGIAEAEIIADEGDDEQREDAFGGRGAAEEKPVEETAEQRVDCCGFPGEQLYIGGGYAFRIDVDAHVLQAHGGSLASIVALAVHAALKTVRLPSVTLHEASAGFSLEVNYSKPYATAVNWSRLPVLSVVHVSPTRHYVVDPTRLEELALPQQLRVAVNSFGQVFHMRFQQLPSRRGNAMRLIRSPREEAGKDNSNDNSERDVDGDDVDDSSRRGFDAGVKGTVGGMNMPDMAAVLHAAVHISQAVIAECDEALAGSSG | not soluble
2 | MANRTEKAAKTVKGTNPQFLVEKIIRQRIYDSMYWKEHCFALTAELVVDKGMDLRYIGGIYAGNIKPTPFLCLALKMLQIQPDKDIVLEFIQQEEFKYIRALGAMYLRLTFDSTEIYKYLEPLYNDFRKLRYMNKMGRFEAIYMDDFIDNLLREDRYCDIQLPRLQKRWALEEVDMLPSYKSLLDGDLVAMSDSDSEEEEVTKKEKPRLTSRRRSRSRDRERDVGDRREVREREKLKERRERGDDEPGPSSSGSGRRDDRDDRRRDRDRSRDRDRRDRRDDDRRDKKKESRRGGADNDEEREIAEANALRAKLGLAPLER | not soluble
3 | MSLDEVSQKPHERLAAWLAEDMAAVNGLIRERMASKHAPRIPEVTAHLVEAGGKRLRPLLTLAAARLCGYEGPYHIHLAATVEFIHTATLLHDDVVDESHRRRGKPTANLLWDNKSSVLVGDYLFARSFQLMVETGSLRVMDILANASATISEGEVLQLTAAQDLRTTEDIYLQVVRGKTAALFAAATEVGGVVAGVPEAQVEALHAYGDALGIAFQIVDDLLDYGGVDAQIGKNTGDDFRERKLTLPVIKAVAQADAEERAFWQRVIEKGDQREGDLEQAHAIMSRHGAMEAARQDALRWVTVAREALGQLPEHPLREMLHDLADFVVERIAEGHHHHHH | soluble
4 | MAHHHHHHMSAARDDSAPCAVPSTLWRECLKQYDYGPDRPKGACEAHRTKFYDCVKDWTARTQHKSYSYTQFELPKSCGHEAEKLHQCMMMNMFEVGHCQRDMAVLKRCAARVDPEVRKYLQDDEAIADLENDIDEATGLKRLWYKVIGKL | soluble
5 | GPGSMGADIVEVDVWRTSDGALILMHDETLDRTTNGTGRVCDHTLAEVRALRLKDGLGNMTEFTVPTVEEVLLLAKDRAILNLDKADVYLDELYPLLVKTGMVEQTILKSEIPFDELCKRYSADLLNRVIFMPILNITDTTTYKNIDRAFAANHALYEVNFEKENADVLQYIRKLAKNSGAALWINTIWPTTCGGYSDDHALRDKDANWGYVVDRIGAGIIQTDRPAMLLAYLQERGCR | not soluble
6 | MYPNQQFMRGKVRDLPDSGVIYLNRIKPIAQEFQQETTAEVEVSVQNIPRHGKSPSSFEKYNSVEERSPTRLPMITTSTTAPKILIEKKVNQQKQEFQKSKQSQLSVPEEAELDRLLDDLLKSDNIPKVILDFFFKMKMIQNFQKTLQLAKIGRRSSKRHVGAYKPKVISFDGTARVNKQHARAHASPTSIGLNPIKTYAYGSSSSQNRGPDFDPWERMGQKALCNLLGTLLLELERIWEHMGGFIDTESPAFFVNETLAQQHIACVFCNKLFNMPQTWEKAQNALNLAGCSNLGGAKKACNGIVNNANLTESFPNMLPHNVQLKDLACKKYCKEQ | soluble
7 | MYEYCRKRGLYPDAESYPWKSNAHYWLVTNLYQNMRANALADAELRRKAADELTCMTARINRGETIPEPVKQLPVMGGRPLNRAQALAKIAEIKAKFGLKGASVLEHHHHHH | not soluble
8 | MSLAGVGGRPPPSVGSVVVADTTMFTDAKLREVLGARSLEEAARIMARILARASRMGLTVYITPSVRAEIERFMLGNGVHPTTIARLMAWVRVKPPTTHELRLPAAMFRRYVETVRARLDKGLRVAEDHVRRALRSRDEEGDIVRSLREKYREYTRKGMLDSVEDVDTLLLALELGAAIVTSDEGLRRAAEDLGLTVLTPVELLEYILALEEEVKSVEEEGHHHHHH | not soluble
9 | TQYWDFCFREPDVAATDQEYREELDRLFVQAVKRQLVTDVELGSYLSGGMDSGSIAAVAAAEHPYIKTFTCGFDLNSASGIELGFDERSKAEYMSYCFKTEHYEMVLKAGDMERILPHVACHLEEPRVGQSYPNFFAAKLASRFVKVVLSGAGGDELFAGYPWRYYRAVVNDDFEHYVDKYYNFWQRLLPNSELKRVFAPIAGEVEHVWTRDIFRNVFRHHADQLYRPEDYINHSLYFEAKTFLHGLLVVEDKLSMAHGLETRVPFLDNDLVEFAMRCPIRLKLNNLAEVVKINENETGNKVRKFFEKNRDGKTILREVMNHRLPADISKAEKQGFSAPDASWFKGESLEFVRRKLLDGHSPLYEIMDAATVRELVNEHLGGIRNRRLLIWSLLSVDAWMRQT | not soluble
10 | MELATTQSVLMQIQPTIQRFARMLASVLQLEVEIVDENLCRVAGTGAYGKFLGRQLSGNSRLLRHVLETKTEKVVTQSRFDPLCEGCDSKENCREKAFLGTPVILQDRCVGVISLIAVTHEQQEHISDNLREFSDYVRHISTIFVSKLLEDQGPGDNISKIFATMIDNMDQGVLVVDDENRVQFVNQTALKTLGVVQNNIIGKPIRFRPLTFESNFTHGHMQHIVSWDDKSELIIGQLHNIQGRQLFLMAFHQSHTSFSVANAPDEPHIEQLVGECRVMRQLKRLISRIAPSPSSVMVVGESGTGKEVVARAIHKLSGRRNKPFIAINCAAIPEQLLESELFGYVKGAFTGASANGKTGLIQAANTGTLFLDEIGDMPLMLQAKLLRAIEAREILPIGASSPIQVDIRIISATNQNLAQFIAEGKFREDLFYRLNVIPITLPPLRERQEDIELLVHYFLHLHTRRLGSVYPGIAPDVVEILRKHRWPGNLRELSNLMEYLVNVVPSGEVIDSTLLPPNLLNNGTTEQSDVTEVSEAHLSLDDAGGTALEEMEKQMIREALSRHNSKKQVADELGIGIATLYRKIKKYELLNT | not soluble
11 | GPGSMFSLVRGLYSSIFADDTRKVLIVGLESSGKTTLSEQLKHMYATESSKNGANSSTTEENSGDATASEVNYNFPTPAPVESLRKKIRPTTGLNRSSVTHVTTPPQHETPNVSLTPLTTPLILWDIGGSLRPLWGNFFGTCHGVIFVVDSTLGEATSNGCSEGGRKTSPDQVGTSEDDESDVGAQPNSPIGDVREGERSQFLRKLYAKDALILRQMFSHPLLAGAPLLIVSNKVDAANHHTLVEIQDALRLVDVALMDEFYADDCVVGEPVYGELHRNGEGDYEGPPDRSAYDKLSNEKSFGGVATPPPGSSGIGNRVMRLVEMSALHGTGVVDGMNWLVAQMRDSGRQPLPDDGK | not soluble
12 | MAHHHHHHMSFKPKIIVCSSPAELSGVACKKIVDIIHASERTNWPLSIALSGGSTPKMLYSRLHEEHLHLLKEERALRFFFGDERLVPADAAESNYNMARQALLHDIPEDLVVPVDVGCVGEVSNVACNDAVKAADAYEKRIDLLLGTQKVEGMEAEIPVFDIVLLGLGSDGHTASIFHGSQAESEMHRAVSVGFPSPTMSPKVWRVTLTPITIIHARHVILLATGKEKKCVLNGIIADTPTEVPVSRFLRNCKGDVTFILDREIAENLTC | soluble
13 | MPELPEVETIRRTLLPLIVGKTIEDVRIFWPNIIRHPRDSEAFAARMIGQTVRGLERRGKFLKFLLDRDALISHLRMEGRYAVASALEPLEPHTHVVFCFTDGSELRYRDVRKFGTMHVYAKEEADRRPPLAELGPEPLSPAFSPAVLAERAVKTKRSVKALLLDCTVVAGFGNIYVDESLFRAGILPGRPAASLSSKEIERLHEEMVATIGEAVMKGGSTVRTYVNTQGEAGTFQHHLYVYGRQGNPCKRCGTPIEKTVVAGRGTHYCPRCQR | soluble
14 | MSLKKYMGIIVDAISRRQFKGEITVENGKIIRVEEKEHDNEQYILPGLVDAHVHIESSMTVPSVFARMAVAKGTVAVVSDPHEIANVMGEEGIEFMLEDSKKSPLKVYFGVPSCVPATPFESSGAVLDINAVDRLLAKDDLHYLSEMMNFPGVILEFPDVMAKLESARKHGKVIDGHAPGLRGADLQKYIGAGISTDHECFEYEEAREKIELGMKILIREGSSARNFETLYPLIDEYPDHVMLCTDDSHPDTLIYEGHIDKLIRRGQEKGLDIYNLIRTAVFNPVEHYGLNVGLLREGDPADFIIVDNLKSFNILSTFIDGECVYENGKVLFPLEKVPAKNVFNRNKISIDDVKLVPPAGAIQEQTTEKGIKKIRVIVANDGELVTGQELIVPKIENGNLVSDPERDILKMVVLSRYSDDPVRIGFIKNIGLEKGAIASSIAHDSHNIIAVGATDEDIVETVNRLIKNKGGIAVGTAENLLDLPLEVAGLMSTLEGEEVASRYHLLNEEARKLGTSLESPFMTLAFMSLLVIPELKLGDKGLFDVTKFEFVDLFADEGHHHHHH | soluble
15 | MGSDKIHHHHHHMSSQTTALNSGVHAKKADIFCQDEARVDWHSKALWVLREKRDRAAASLPEWEQLRQLGSEMKLHTLTHLGEYLETFEKNCQANGIVVHWAKDGAEHNQIVHNILAKHQVKKLVKSKSMLTEECHLNPYLESKGIEVIDTDLGERIIQLAKQPPSHIVVPAIHLKKEEVGDLFHDKLGTEAGASDPLYLTRAARAHLREQFLSADAAMTGVNMAIADKGAVVVCTNEGNADMGANLPKLQLHSMGIDKIVPDLDSAAILLRTLARNATGQPITTYSSFYRGPQDGGEMHVIIVDNGRTDMLQDKILAESLKCIRCGGCLNTCPVYRRSGGYSYNYTIPGPIGIAVGAQADDTHSIPWACTLCGSCSYVCPTKVPLDKIIHHHRRLKAKAGKLPYGKRNYMPLVGNFMASETMLNCSMSVARTALRILPGSLLKPFSGAWGKYRELPVAPKSSFEAWFNKNRGQ | not soluble
16 | MGHHHHHHSHMFNVMVDAKAQSTKLCSMEMGQEFAKMWHQYHSKIDELIEETVKEMITLLVAKFVTILEGVLAKLSRYDEGTLFSSFLSFTVKAASKYVDVPKPGMDVADAYVTFVRHSQDVLRDKVNEEMYIERLFDQWYNSSMNVICTWLTDRMDLQLHIYQLKTLIRMVKKTYRDFRLQGVLDSTLNSKTYETIRNRLTVEEATASVSEGGGLQGISMKDSDEEDEEDD | not soluble
17 | MGSDKIHHHHHHNVYSLPANGGRLIGELQTHVVEKGDYFKTIADKYNIGILELMETNPGVDPFLPTPGTQLVIPTQMLLPDVPRKGIVINLPELRLYYFPKNGREVHVFPVGIGRIGRETPEMTTKIKARIPNPSWTPPASLRAEHLRERGEVLPPVVPAGPDNPLGKYAMQLSYGDGSYLIHGTNKDFGIGMRVSAGCIRLNPDDIEWLFHQAKYGDSVRVINQTVKIATEPDGRQIIEVHSPLSKTEDQPREKVISLSSKVVKFISQESVDNTKANDALLTQNGIPMVISHPPLTAAQDLEITP | not soluble
18 | HKDFTWNTTLSATWSKEKIDKLPDGDLISENLFTGEPIHAIYGYKYAGIWGSDTPKETLDAYGVNPGFIKIETVDKNGDGGVHKYSTDDRQILGHTNPDWIIGLNNSFTYKNFDLSVFAMARYGQTINSDLLGYYTAEQSVTKNQLAGVDYWTEDNQGAYFPRPGTGDEQKTVYPSLRVHDGSFIKIKNITLGYTLPANISRKVLMEKCRIYATAYNPFIFVKDKQLKDTDPETNGSDAFPTYRQFVFGVNLTF | not soluble
19 | MAHHHHHHMLRRSVVNLQNPARVFRSAAKRQKLDEAVRVDQAGEVAAVRICKYQLLWMSPLDSGVPVVKEILRDELVHEEVMGHLARKHSVRLTLLDPLFHVGAFVMGSCTALLGKDAVMCCHAAVEVTIAQHYNDQLRELQSLEESEGASKGKDEKDWAEVMEYVARFRDEELHHQELGEQNGAENAPAYPLLYNGIRIMCSLGVALAKRI | not soluble
20 | SLATRRPMSIAEPDTAVSTASFMTAWEFPQGDDSAETPTTPKALQFQEPEYIHIPWDHNTDIAPDLMDLCHVVDDRTKAGKRVLIHCQQGASRSASLIIAYGLFQRPELTVNDAYYAAQAKSQWISPNMKLMYSLQDFQKEVSTKRTAQPSNREG | not soluble
